Legend:
Mol8 = molecular target: T1, Mol8 (Mobiluncus mulieris); test: SDS-PAGE of mixed Mol domains, ester bond ligation
T1 construct: also called Mol8 construct
T1 chain: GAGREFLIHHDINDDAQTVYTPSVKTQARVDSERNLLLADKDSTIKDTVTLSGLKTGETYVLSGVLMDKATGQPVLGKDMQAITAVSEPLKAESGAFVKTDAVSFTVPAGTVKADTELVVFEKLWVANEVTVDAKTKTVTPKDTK

Mol9 = molecular target: T2, Mol9 (Mobiluncus mulieris); test: SDS-PAGE of mixed Mol domains, ester bond ligation
T2 construct: also called Mol9 construct
T2 chain: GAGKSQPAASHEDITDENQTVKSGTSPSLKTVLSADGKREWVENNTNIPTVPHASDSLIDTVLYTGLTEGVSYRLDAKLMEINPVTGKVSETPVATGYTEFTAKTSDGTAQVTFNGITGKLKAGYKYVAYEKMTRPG

B1: Mol10 (other)
chain: GAPDKPVPPPHEDPKDPNQTVVSEHNPGITTTLTDAQAAKGTDGKVISLTRDAQLKDVVRVTQTGLIEGAKYHVFSKLVNQANPDQVVSAGMQEFTATGDQLRSVTVKFTVPKETLQELAGSDPSAEFKLVAYEYLALDSDTDIVNKEATSEIEAVGFK
notes: also called Mol10 construct
Mol8
  binding result: no binding (tested: equimolar amounts, 24 h)

B2: Mol11 (other)
chain: GAGKTWAATHADPNDAGQTVTVVKAPKIGTTLKYGQSKTVWVADKVELTDTVEYFNLQPKTKYTLSGNLMGGTSAESLSDTGVKATTEFTTPAAANGAQTVSGTAVVKFTVPREVLERNEKLVAYEYLTIDGNPVASHEDPKDENQTVTSKKP
notes: also called Mol11 domain construct
Mol9
  binding result: no binding (tested: equimolar amounts, 24 h)
Mol8
  binding result: no binding (tested: equimolar amounts, 24 h)
